Reference: patent publication US20120077731A1 (Ablynx, published 2012)

Tests used:
[1] = biological target: T1, Human membrane IL-6R on cells (human, UniProt P08887 20-468); assay: cell-based or functional assay
T1 sequence (looked up): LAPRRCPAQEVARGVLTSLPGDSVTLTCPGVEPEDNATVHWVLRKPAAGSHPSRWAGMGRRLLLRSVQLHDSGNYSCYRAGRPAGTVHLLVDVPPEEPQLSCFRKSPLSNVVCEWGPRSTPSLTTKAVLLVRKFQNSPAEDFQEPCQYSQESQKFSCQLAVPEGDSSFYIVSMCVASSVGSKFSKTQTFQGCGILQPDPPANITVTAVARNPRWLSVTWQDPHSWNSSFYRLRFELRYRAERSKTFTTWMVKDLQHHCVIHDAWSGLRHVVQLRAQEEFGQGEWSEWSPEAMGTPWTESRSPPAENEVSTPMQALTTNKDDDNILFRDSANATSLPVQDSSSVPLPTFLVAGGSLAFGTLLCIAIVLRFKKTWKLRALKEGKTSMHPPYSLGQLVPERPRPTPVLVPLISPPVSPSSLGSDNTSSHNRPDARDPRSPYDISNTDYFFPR

Human soluble IL-6R = biological target: T2, Human soluble IL-6R (human, UniProt P08887 20-358); assay: Biacore T100, IL-6R covalently coupled
T2 construct: Soluble recombinant form; biotinylated in some assays; also called hIL-6R; human IL-6R
T2 sequence (looked up): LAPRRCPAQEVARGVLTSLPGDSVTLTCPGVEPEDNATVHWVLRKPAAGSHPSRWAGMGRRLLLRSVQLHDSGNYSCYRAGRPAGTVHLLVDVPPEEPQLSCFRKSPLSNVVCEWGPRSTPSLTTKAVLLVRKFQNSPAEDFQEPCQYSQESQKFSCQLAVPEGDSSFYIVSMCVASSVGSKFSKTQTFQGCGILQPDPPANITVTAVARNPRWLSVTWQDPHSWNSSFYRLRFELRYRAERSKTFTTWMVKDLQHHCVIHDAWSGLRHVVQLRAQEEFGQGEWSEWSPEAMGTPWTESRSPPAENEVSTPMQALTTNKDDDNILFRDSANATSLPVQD

Cyno plasma sIL-6R = biological target: T3, Cyno plasma sIL-6R (cynomolgus monkey, UniProt A0A2K5WN54 60-396); assay: plasma potency assay, cyno plasma, 2.4 nM IL6; blocked ligand IL-6
T3 construct: also called cynomolgus sIL-6R
T3 sequence: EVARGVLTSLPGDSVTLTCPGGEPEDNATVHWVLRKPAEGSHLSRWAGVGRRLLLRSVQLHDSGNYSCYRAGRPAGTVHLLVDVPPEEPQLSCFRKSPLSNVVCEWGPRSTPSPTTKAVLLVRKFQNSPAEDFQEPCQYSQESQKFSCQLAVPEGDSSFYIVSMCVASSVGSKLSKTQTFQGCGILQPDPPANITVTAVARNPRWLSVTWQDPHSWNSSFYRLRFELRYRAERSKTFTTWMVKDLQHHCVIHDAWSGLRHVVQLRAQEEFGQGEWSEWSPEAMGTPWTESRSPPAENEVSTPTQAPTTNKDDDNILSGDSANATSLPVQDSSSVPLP
Protocol: All 5 affinity matured Nanobodies and the sequence optimized Nanobody were also tested in a plasma potency assay. […] TMB was used as substrate.

OSM-R = biological target: T4, OSM-R (UniProt Q99650 28-739, limits assumed); assay: competitive binding ELISA: IL6R20A11 (0.05 nM) pre-incubated with a series of the receptor; free IL6R20A11 captured on sIL-6R and detected via anti-His
T4 sequence (looked up): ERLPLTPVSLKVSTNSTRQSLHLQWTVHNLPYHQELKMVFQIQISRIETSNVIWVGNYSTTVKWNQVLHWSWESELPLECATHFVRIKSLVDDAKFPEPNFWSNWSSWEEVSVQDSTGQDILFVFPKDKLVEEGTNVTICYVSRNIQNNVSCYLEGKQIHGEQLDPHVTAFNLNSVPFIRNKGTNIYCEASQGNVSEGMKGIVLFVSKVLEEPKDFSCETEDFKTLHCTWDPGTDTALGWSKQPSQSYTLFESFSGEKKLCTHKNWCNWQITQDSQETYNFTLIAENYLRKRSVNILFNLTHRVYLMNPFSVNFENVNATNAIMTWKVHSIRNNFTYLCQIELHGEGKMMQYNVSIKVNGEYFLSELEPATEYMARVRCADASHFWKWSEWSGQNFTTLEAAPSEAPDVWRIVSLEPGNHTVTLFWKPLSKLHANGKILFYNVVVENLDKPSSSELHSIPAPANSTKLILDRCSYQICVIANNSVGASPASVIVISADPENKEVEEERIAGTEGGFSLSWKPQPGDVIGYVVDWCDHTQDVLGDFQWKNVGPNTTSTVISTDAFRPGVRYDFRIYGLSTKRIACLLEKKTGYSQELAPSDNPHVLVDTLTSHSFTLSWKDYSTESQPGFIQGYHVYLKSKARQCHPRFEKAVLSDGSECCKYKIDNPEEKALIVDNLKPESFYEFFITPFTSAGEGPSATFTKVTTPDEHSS

LIF-R = biological target: T5, LIF-R (UniProt P42702 45-833, limits assumed); assay: as above
T5 sequence (looked up): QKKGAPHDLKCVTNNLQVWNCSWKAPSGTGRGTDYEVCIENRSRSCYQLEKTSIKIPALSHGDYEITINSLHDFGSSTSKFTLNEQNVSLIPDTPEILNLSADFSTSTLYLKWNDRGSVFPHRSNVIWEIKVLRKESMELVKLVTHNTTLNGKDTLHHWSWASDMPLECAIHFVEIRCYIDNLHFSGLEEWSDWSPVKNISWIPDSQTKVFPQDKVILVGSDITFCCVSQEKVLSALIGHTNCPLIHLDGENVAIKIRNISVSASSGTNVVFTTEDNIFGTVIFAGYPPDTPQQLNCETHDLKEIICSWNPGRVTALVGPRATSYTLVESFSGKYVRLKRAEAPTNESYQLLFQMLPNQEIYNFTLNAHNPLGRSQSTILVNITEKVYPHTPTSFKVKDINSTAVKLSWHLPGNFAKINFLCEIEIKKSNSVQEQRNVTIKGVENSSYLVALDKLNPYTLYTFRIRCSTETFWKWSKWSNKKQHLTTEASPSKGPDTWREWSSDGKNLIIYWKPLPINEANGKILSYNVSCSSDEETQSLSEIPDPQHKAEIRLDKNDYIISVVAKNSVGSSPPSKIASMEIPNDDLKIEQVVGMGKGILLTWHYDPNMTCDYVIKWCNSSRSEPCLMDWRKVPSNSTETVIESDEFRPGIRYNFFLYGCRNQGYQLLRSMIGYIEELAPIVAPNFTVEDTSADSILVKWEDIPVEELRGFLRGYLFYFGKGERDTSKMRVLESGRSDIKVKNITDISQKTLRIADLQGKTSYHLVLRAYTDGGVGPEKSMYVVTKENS

IC50 (nM), TF-1 proliferation at 100 IU/mL IL-6 [1]: 0.283 nM
koff (Human soluble IL-6R): 1.9e-05 s⁻¹
IC50 (Cyno plasma sIL-6R): 0.09 nM
binding result (OSM-R): no binding (tested: 5 nM (log conc 0.7))
binding result (LIF-R): no binding (tested: 5 nM (log conc 0.7))
B1: PMP20A11 (VHH)
VHH: EVQLVESGGGLVQPGGSLRLSCAASGSVFKINVMAWYRQAPGKGRELVAGIISGGSTSYADSVKGRFTISRDNAKNTLYLQMNSLRPEDTAVYYCAFITTESDYDLGRRYWGQGTLVTVSS
notes: also called IL6R20A11; IL6R300; not shown: c-myc and (His)6 tags
